The source of these data is article doi:10.1101/2022.02.17.480855.

The target of this assay is FtsZ from Synechococcus 7942 (Synechococcus 7942). Put plainly: MST.

Consider Microcystin-LR (peptide), for which the Kd came to 1120 nM.

One may read the Kd as the equilibrium constant for the complex coming apart. A lower Kd goes with higher affinity.
